Drawing on article PMC4576506, this text covers stoichiometry N for one substance.

This test deals with recombinant human glycine receptor α1 subunit (hGlyRα1) homopentamer, detergent solubilized (human) (UniProt P23415). Put plainly: SEC. (In general: In gel filtration, larger molecules generally elute earlier.)

Usually stoichiometry N stands for a count of units in the complex or per binding partner.

In the case of “recombinant human glycine receptor α1 subunit (hGlyRα1) homopentamer, detergent solubilized (from UniProt P23415-2 29-449)”, the stoichiometry N was determined as 5.
